Assay: Effect of dialysis membrane MWCO on diffusion of BSA and IgG from VH-compartment to FT-compartment
Format: in vitro ADME, porcine
Settings: DM-1 50 kDa MWCO compared with DM-1 100 kDa MWCO; DM-2 100 kDa; HA gel 0.6% w/v
Experimental: Diffusion of bovine serum albumin (BSA) and Immunoglobulin G (IgG) in the flow direction from VH-compartment to FT-compartment was investigated by varying MWCO of the dialysis membrane. The experiment was performed similarly as described in example 1 with minor modifications. Two different MWCO dialysis membranes were used as DM-1, with MWCO 50 kDa and 100 kDa, whereas the MWCO of DM-2 was kept constant at 100 kDa. VH-compartment was filled with 3.5 mL of sterile porcine VH and GM-compartment was filled with about 3 mL of sterile HA gel (0.6% w/v). FT-compartment was filled with sterile PBS.

## FITC-BSA: FITC-labelled bovine serum albumin (66 kDa), globular macromolecule
  diffusion into FT compartment: restrained the diffusion of both IgG and BSA significantly

Source: patent US10746644B2, “Vitro method and apparatus for analysing the behaviour of substances in simulated physiological environment” (Hoffmann-La Roche Inc., priority 2014, dated 2020)
